# Laboratory results published in patent US20160000930A1 (University of Texas, published 2016).
# Bridge positions count the residues as written; N and C are the ends. Ends that are not written are not given here.
# T1: recombinant bacterially-purified mouse ΔDCN (His6-tagged, amino acids 45-354 of mouse DCN) (mouse, UniProt P28654 45-354)
# T1 construct: Expressed in bacteria, so not glycosylated; also called delta-DCN; His6-ΔDCN
# T1 sequence: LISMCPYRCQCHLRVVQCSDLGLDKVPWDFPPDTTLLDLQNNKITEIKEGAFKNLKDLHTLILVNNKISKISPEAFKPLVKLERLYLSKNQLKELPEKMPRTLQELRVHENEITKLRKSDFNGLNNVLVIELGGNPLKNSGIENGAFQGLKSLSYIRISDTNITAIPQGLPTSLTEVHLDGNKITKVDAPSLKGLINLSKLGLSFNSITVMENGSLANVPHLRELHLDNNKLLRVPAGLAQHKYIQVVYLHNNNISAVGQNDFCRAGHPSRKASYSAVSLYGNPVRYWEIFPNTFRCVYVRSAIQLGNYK
# B1: FLAG-tagged mouse resistin produced in HEK293 cells (Enzo Life Sciences) (ligand, UniProt Q99P87 21-114, looked up)
# chain: SSMPLCPIDEAIDKKIKQDFNSLFPNAIKNIGLNCWTVSSRGKLASCPEGTAVLSCSCGSACGSWDIREEKVCHCQCARIDWTAARCCKLQVAS
# notes: Bought protein; also called FLAG-resistin; ADSF; not shown: FLAG tag
# B2: WAT7 peptide, cysteine-cyclized synthetic (CSWKYWFGEC) (peptide)
# peptide: CSWKYWFGEC
# modifications: disulfide 1-10
# notes: Chemically synthesized (Genemed Synthesis); also called cyclic WAT7
# Assays:
# bovine serum albumin [1] = molecular target: T2, bovine serum albumin (bovine, UniProt P02769 25-607); assay: ELISA, BSA coated as background control (FIG. 6D)
# T2 construct: Background control in ELISA; also called BSA
# Description: (§1) Signal was detected by Odyssey imaging system using anti-goat IRDye 800CW or anti-rabbit IRDye 680 both from Licor Biosciences. Bovine DCN was from Sigma-Aldrich, NS0-derived murine DCN was from R&D Systems. Murine DCN cDNA was generated from WAT total RNA using SuperScript kit (Invitrogen). For bacterial expression, full-length mouse core DCN and ΔDCN isoforms were produced by cloning fragments encoding amino acids 1-354 and 45-354 of mouse DCN cDNA (OriGene) or of CLIC4 cDNA (OriGene) in-frame with the His₆Tag into pET28a vector, respectively. His₆-tagged proteins were purified with His-Tag kit (Novagen). For ELISA binding assays, 100 μl of 10 μg/ml of indicated His₆-DCN preparations, His₆-CLIC4 (control His₆-protein), NS0 cell-expressed mouse DCN (R&D Systems), purified bovine DCN (Sigma-Aldrich), or BSA were coated and immobilized onto Maxisorb Immunoplates (96 well; NUNC) overnight at 4° C., followed by blocking with 3% BSA, and then incubating with 100 μl of indicated concentrations of WAT7 or control WAT2 peptides. […] Bound peptides or FLAG-resistin were probed with corresponding rabbit anti-peptide Genemed antibodies (1:2,000) or rabbit anti-FLAG antibodies (Sigma-Aldrich, 1:2,000) followed by secondary goat anti-rabbit HRP-conjugated antibodies (Millipore, 1:5,000) and signal detection with Ultra-TMB (Pierce) substrate and measurement of absorbance at 450 nm. […]
# [2] = molecular target: T3, glycosylated bovine DCN (purified, Sigma-Aldrich) (bovine, UniProt P21793 31-360, glycosylated (GAG chain)); assay: ELISA, protein coated, FLAG-resistin detected with anti-FLAG (FIG. 6D)
# T3 construct: also called bDCN*
# Description: as §1
# [3] = molecular target: T1, recombinant bacterially-purified mouse …; assay: ELISA, DCN forms coated, FLAG-resistin detected with anti-FLAG (FIG. 6D); reference: full-length DCN (mDCN)
# Experimental: For bacterial expression, full-length mouse core DCN and ΔDCN isoforms were produced by cloning fragments encoding amino acids 1-354 and 45-354 of mouse DCN cDNA (OriGene) or of CLIC4 cDNA (OriGene) in-frame with the His₆Tag into pET28a vector, respectively. His₆-tagged proteins were purified with His-Tag kit (Novagen). For ELISA binding assays, 100 μl of 10 μg/ml of indicated His₆-DCN preparations, His₆-CLIC4 (control His₆-protein), NS0 cell-expressed mouse DCN (R&D Systems), purified bovine DCN (Sigma-Aldrich), or BSA were coated and immobilized onto Maxisorb Immunoplates (96 well; NUNC) overnight at 4° C., followed by blocking with 3% BSA, and then incubating with 100 μl of indicated concentrations of WAT7 or control WAT2 peptides. For adipokines binding assay, FLAG-tagged mouse resistin produced in HEK293 cells (Enzo Life Sciences), or control FLAG-BAP protein (Sigma-Aldrich) were incubated at the concentrations indicated. Bound peptides or FLAG-resistin were probed with corresponding rabbit anti-peptide Genemed antibodies (1:2,000) or rabbit anti-FLAG antibodies (Sigma-Aldrich, 1:2,000) followed by secondary goat anti-rabbit HRP-conjugated antibodies (Millipore, 1:5,000) and signal detection with Ultra-TMB (Pierce) substrate and measurement of absorbance at 450 nm. […]
# [4] = molecular target: T3, glycosylated bovine DCN (purified, …); assay: ELISA, protein coated (FIG. 16B)
# Description: as §1, with “Bovine” for “Signal was detected by Odyssey imaging system using anti-goat IRDye 800CW or anti-rabbit IRDye 680 both from Licor Biosciences. Bovine”
# bovine serum albumin [5] = molecular target: T2, bovine serum albumin; assay: ELISA, BSA coated as background control
# Description: as §1
# T2 sequence (P02769 25-607 limits assumed): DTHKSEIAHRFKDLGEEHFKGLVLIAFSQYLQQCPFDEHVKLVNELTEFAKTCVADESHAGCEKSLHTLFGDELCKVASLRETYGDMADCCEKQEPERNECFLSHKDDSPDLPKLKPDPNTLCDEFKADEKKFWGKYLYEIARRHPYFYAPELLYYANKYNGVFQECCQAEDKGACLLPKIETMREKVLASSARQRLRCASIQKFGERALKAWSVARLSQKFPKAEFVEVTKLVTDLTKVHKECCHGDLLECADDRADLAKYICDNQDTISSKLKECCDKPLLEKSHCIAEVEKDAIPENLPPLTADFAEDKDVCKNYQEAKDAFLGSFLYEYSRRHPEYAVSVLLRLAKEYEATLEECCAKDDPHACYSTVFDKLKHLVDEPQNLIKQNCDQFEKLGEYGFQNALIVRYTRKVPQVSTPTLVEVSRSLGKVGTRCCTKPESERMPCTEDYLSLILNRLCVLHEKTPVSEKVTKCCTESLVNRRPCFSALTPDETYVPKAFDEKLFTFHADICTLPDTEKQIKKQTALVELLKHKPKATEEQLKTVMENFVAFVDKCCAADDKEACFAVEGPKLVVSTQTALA
# T3 sequence (P21793 31-360 limits assumed): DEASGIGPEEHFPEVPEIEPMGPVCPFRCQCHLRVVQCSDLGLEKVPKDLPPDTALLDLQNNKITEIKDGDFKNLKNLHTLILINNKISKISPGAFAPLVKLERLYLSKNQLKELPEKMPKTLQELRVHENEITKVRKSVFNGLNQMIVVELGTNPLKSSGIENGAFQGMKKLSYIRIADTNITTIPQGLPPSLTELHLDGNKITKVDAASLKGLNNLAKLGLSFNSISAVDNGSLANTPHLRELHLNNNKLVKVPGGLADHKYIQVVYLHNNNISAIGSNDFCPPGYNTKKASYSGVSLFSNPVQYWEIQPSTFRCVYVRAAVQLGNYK
Binder,binding result (bovine serum albumin [1]),binding result [2],fold lower molar concentration for binding than to full-length DCN [3] [fold],binding result [4],binding result (bovine serum albumin [5])
B1,no binding,no binding,100,,
B2,,,,no binding,no binding
